Data: article PMC10462004

Target: mouse PD-1 (programmed cell death-1), wild type, expressed on CHO cells (mouse) (UniProt Q02242)
Assay: biomembrane force probe

UniProt Q02242, sequence (Q02242 25-288): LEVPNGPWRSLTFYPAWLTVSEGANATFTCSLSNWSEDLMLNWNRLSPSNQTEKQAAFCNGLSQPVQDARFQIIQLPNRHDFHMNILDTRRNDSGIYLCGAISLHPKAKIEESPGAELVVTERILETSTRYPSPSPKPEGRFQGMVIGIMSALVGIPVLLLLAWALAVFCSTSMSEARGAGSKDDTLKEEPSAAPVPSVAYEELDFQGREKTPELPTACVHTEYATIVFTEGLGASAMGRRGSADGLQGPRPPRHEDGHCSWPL

Substance: mouse PD-L2 with C-terminal biotin (from UniProt Q9WUL5 20-221) (ligand)
- F1/2 (force at which 50% of the bonds rupture): 12.1 pN
